The text below walks through data of paper PMC4289141.

The target in assay [1] is ^C81/C96RIDC1 (the C81/C96 double mutant of Rosetta Interface Designed Cytochrome 1) (UniProt P0ABE7). The assay can be described thus: AUC.
Assay [2] shares this target. Description: cross-linking.

One may read the stoichiometry N as a count of units in the complex or per binding partner. With “^C81/C96RIDC1 (the C81/C96 double mutant of Rosetta Interface Designed Cytochrome 1) (from UniProt P0ABE7 23-128) (natural protein)”, the stoichiometry N in assay [1] stood at 4. For the same substance, in assay [2], the abundance of polymeric species (19:1 GSH/GSSG, 1 mM, 1 day) is 13%; the abundance of the tetramer (air oxidation, room temperature) was 48%; the yield of the tetramer (19:1 GSH/GSSG, 1 mM, 1 day) was 63%.
